In patent US20160223554A1, “METHODS FOR DIAGNOSIS, PROGNOSIS AND METHODS OF TREATMENT” (priority 2011, published 2016):

What was measured:
AML blasts = test: SCNP signaling and apoptosis nodes in AML BMMC (Example 4, Study No. 2); assay type: cell-based, human
[1] = tested on: AML bone marrow mononuclear cells (BMMC); test: SCNP of paired diagnosis and relapse AML BMMC and independent diagnostic set (Example 5); assay type: cell-based, human; conditions: for modulator responsive cells in the diagnostic AML bone marrow samples: diagnosis samples of Patients 1 and 2, 15 minutes modulation; for cells in which both p-Akt and p-S6 were induced: SCF 20 ng/ml, 15 minutes
From the text: All AML bone marrow mononuclear cells (BMMC) were derived from the bone marrow (BM) of AML patients treated at MD Anderson Cancer Center (MDACC) between September 1999 and September 2006. Clinical data were de-identified in compliance with Health Insurance Portability and Accountability Act regulations. Patient/sample inclusion criteria required a diagnosis of French-American-British (FAB) classification of M0 through M7 AML (excluding M3) AML, collection prior to therapy initiation and at least 50% viability upon sample thaw. For the identification of chemoresistant signaling profiles, two longitudinally paired BMMC samples at diagnosis (collection prior to the initiation of induction chemotherapy) and first relapse, were examined. An independent test set comprised of 47 BMMC samples collected at diagnosis from AML patients with a disease response of CR after high dose cytarabine based chemotherapy was used to assess the ability of the identified signaling profiles to predict disease relapse. Healthy, unstimulated BMMC (n=2) were purchased from a commercial source (All Cells) to serve as a control. All samples underwent fractionation over Ficoll-Hypaque prior to cryopreservation with 90% fetal bovine serum and 10% dimethyl sulfoxide and storage in liquid nitrogen.
The SCNP assay measured response to growth factors and cytokines involved in hematopoietic progenitor or myeloid biology (SCF, FLT3L, G-CSF, IL-27), drug transporter (ABCG2, MRP-1) and chemokine receptors (CXCR4) associated with adverse disease prognosis in AML, and the c-Kit growth factor receptor for SCF. The SCF and FLT3L—mediated PI3K/Akt and MAPK pathway is important for maintaining the hematopoietic stem cell pool; G-CSF-mediated Jak/STAT pathway activation is important for neutrophilic differentiation of hematopoietic progenitor cells; interleukin (IL)-27 mediated Jak/STAT pathway activation is important in regulating proliferation and differentiation of hematopoietic stem cells; CXCR4 expression is associated with disease relapse and decreased survival; and drug transporter expression levels (i.e. ABCG2 and MRP-1) are known to be associated with adverse prognosis in AML. All together, approximately 20 signaling nodes were evaluated in each sample.
SCNP assays were performed as described previously. Cryopreserved samples were thawed at 37° C. and washed once in warm PBS containing 10% FBS (HyClone, Waltham, Mass., USA) and 2 mM EDTA. […] The cells were re-suspended in RPMI containing 1% FBS, aliquoted to 100,000 cells/condition and rested for 1-2 hours at 37° C. Cells were incubated for 15 minutes at 37° C. with each of the following signaling modulators: fins-like tyrosine kinase receptor-3 ligand (FLT3L, 50 ng/ml; eBiosciences, San Diego, Calif., USA); granulocyte colony-stimulating factor (G-CSF, 50 ng/ml; R&D Systems, Minneapolis, Minn., USA); interleukin-27 (IL-27, 50 ng/ml, R&D Systems); stem cell factor (SCF, 20 ng/ml, R&D Systems). After exposure to modulators, cells were fixed with a final concentration of 1.6% paraformaldehyde (Electron Microscopy Sciences, Hatfield, Pa., USA) for 10 minutes at 37° C. Cells were pelleted and then permeabilized with 100% ice-cold methanol (Sigma-Aldrich, St. Louis, Mo., USA) and stored at −80° C. overnight. Subsequently, cells were washed with FACS buffer containing phosphate buffered saline (PBS, Fisher Scientific, Waltham, Mass., USA), 0.5% bovine serum albumin (BSA, Ankeny, Iowa, USA), 0.05% NaN3 (Mallinckrodt, Hazelwood, Mo., USA), pelleted and stained with cocktails of fluorochrome-conjugated antibodies. As an exploratory effort, when sufficient number of cells were available, simultaneous measurement of c-Kit expression and SCF induced signaling was also performed. Antibodies were available from commercial vendors such as BD, Bechman Coulter, Invitrogen and R&D Systems.
Flow cytometry data was acquired on an LSR II and/or CANTO II flow cytometer using the FACS DIVA software (BD Biosciences, San Jose, Calif.). […]

AML PBMC = test: Kinase inhibitor Signaling Arm, SCNP (Example 13); assay type: cell-based, human; conditions: range over AML PBMC samples (N=6); short modulation, 15 minutes
[2] = tested on: elderly pts with untreated AML; conditions: cited from earlier work
[3] = Study No.2, patients age 60 and older
[4] = Study No.2, patients with De Novo AML
[5] = Study No.2, patients with Secondary AML
[6] = Fold metric, all patients, Study No. 2
[7] = Study No.2, patients less than 60 years old
[8] = TotalPhospho metric, all patients, Study No. 2

Q: For SCF: stem cell factor, ligand of c-Kit, which “Mean Value of CRs, p-S6 Fold” value (AML blasts; [3]) is on record?
A: 0.14

Q: What about the “Mean Value of NRs, p-S6 Fold” value (AML blasts; [3]) of the same molecule?
A: 0.70

Q: And the “Mean Value of CRs, p-Akt Fold” value (AML blasts; [4])?
A: 0.52

Q: What about the “Mean Value of CRs, p-PLCy2 TotalPhospho” value (AML blasts; [4]) of the same molecule?
A: 1.29

Q: And the “Mean Value of CRs, p-S6 Fold” value (AML blasts; [4])?
A: 1.05

Q: What about the “Mean Value of NRs, p-Akt Fold” value (AML blasts; [4]) of the same molecule?
A: −0.20

Q: What about the “Mean Value of NRs, p-PLCy2 TotalPhospho” value (AML blasts; [4]) of the same molecule?
A: 1.96

Q: What about the “Mean Value of NRs, p-S6 Fold” value (AML blasts; [4]) of the same molecule?
A: 0.43

Q: And the “Mean Value of CRs, p-S6 Fold” value (AML blasts; [5])?
A: 0.21

Q: And the “Mean Value of NRs, p-S6 Fold” value (AML blasts; [5])?
A: 1.28

Q: And the “modulator responsive cells in the diagnostic AML bone marrow samples” value (“modulator responsive cells” below) [1]?
A: ~1%

Q: And the “cells in which both p-Akt and p-S6 were induced” value ([1]; relapse sample from Patient 1)?
A: 3.2%

Q: And the “cells in which both p-Akt and p-S6 were induced” value ([1]; relapse sample from Patient 2)?
A: 31.7%

Q: What about the “percentage of growth factor responsive cells” value (shortened to “percentage”) (AML PBMC) of the same molecule?
A: 6%-49%

B1: FLT3L: fms-like tyrosine kinase receptor-3 ligand (protein, UniProt P49771 27-235, looked up)
Fms-related tyrosine kinase 3 …: TQDCSFQHSPISSDFAVKIRELSDYLLQDYPVTVASNLQDEELCGGLWRLVLAQRWMERLKTVAGSKMQGLLERVNTEIHFVTKCAFQPPPSCLRFVQTNISRLLQETSEQLVALKPWITRQNFSRCLELQCQPDSSTLPPPWSPRPLEATAPTAPQPPLLLLLLLPVGLLLLAAAWCLHWQRTRRRTPRPGEQVPPVPSPQDLLLVEH
Q: With B1 as the molecule, how does the “Mean Value of CRs, p-Akt Fold” value (AML blasts; [3]) read?
A: 0.00

Q: And the “Mean Value of CRs, p-Erk Fold” value (AML blasts; [3])?
A: 0.01

Q: What about the “Mean Value of CRs, p-S6 Fold” value (AML blasts; [3]) of the same molecule?
A: −0.06

Q: And the “Mean Value of NRs, p-Akt Fold” value (AML blasts; [3])?
A: 0.36

Q: And the “Mean Value of NRs, p-Erk Fold” value (AML blasts; [3])?
A: 0.21

Q: And the “Mean Value of NRs, p-S6 Fold” value (AML blasts; [3])?
A: 0.67

Q: And the “Mean Value of CRs, p-PLCy2 TotalPhospho” value (AML blasts; [4])?
A: 1.26

Q: And the “Mean Value of NRs, p-PLCy2 TotalPhospho” value (AML blasts; [4])?
A: 1.95

Q: What about the “Mean Value of CRs, P-Erk Fold” value (AML blasts; [5]) of the same molecule?
A: 0.00

Q: And the “Mean Value of CRs, p-Akt Fold” value (AML blasts; [5])?
A: 0.19

Q: And the “Mean Value of CRs, p-S6 Fold” value (AML blasts; [5])?
A: 0.12

Q: What about the “Mean Value of NRs, P-Erk Fold” value (AML blasts; [5]) of the same molecule?
A: 0.32

Q: And the “Mean Value of NRs, p-Akt Fold” value (AML blasts; [5])?
A: 0.60

Q: What about the “Mean Value of NRs, p-S6 Fold” value (AML blasts; [5]) of the same molecule?
A: 1.02

Q: And the “modulator responsive cells” value [1]?
A: ~1%

Q: And the “percentage” value (AML PBMC)?
A: 3%-22%

B2: IL-27: interleukin-27, cytokine modulator (protein, UniProt Q8NEV9 29-243; Q14213 21-229, looked up)
Interleukin-27 subunit alpha: FPRPPGRPQLSLQELRREFTVSLHLARKLLSEVRGQAHRFAESHLPGVNLYLLPLGEQLPDVSLTFQAWRRLSDPERLCFISTTLQPFHALLGGLGTQGRWTNMERMQLWAMRLDLRDLQRHLRFQVLAAGFNLPEEEEEEEEEEEEERKGLLPGALGSALQGPAQVSWPQLLSTYRLLHSLELVLSRAVRELLLLSKAGHSVWPLGFPTLSPQP
Interleukin-27 subunit beta: RKGPPAALTLPRVQCRASRYPIAVDCSWTLPPAPNSTSPVSFIATYRLGMAARGHSWPCLQQTPTSTSCTITDVQLFSMAPYVLNVTAVHPWGSSSSFVPFITEHIIKPDPPEGVRLSPLAERQLQVQWEPPGSWPFPEIFSLKYWIRYKRQGAARFHRVGPIEATSFILRAVRPRARYYVQVAAQDLTDYGELSDWSLPATATMSLGK
Q: Which “Mean Value of CRs, p-Stat3” value (AML blasts; [6]) does the source give for B2 here?
A: 0.22

Q: And the “Mean Value of NRs, p-Stat3” value (AML blasts; [6])?
A: 0.58

Q: What about the “Mean Value of CRs, p-Stat3 Fold” value (AML blasts; [3]) of the same molecule?
A: −0.19

Q: And the “Mean Value of NRs, p-Stat3 Fold” value (AML blasts; [3])?
A: 0.48

Q: And the “Mean Value of CRs, p-Stat1 TotalPhospho” value (AML blasts; [7])?
A: 1.73

Q: And the “Mean Value of CRs, p-Stat3 Fold” value (AML blasts; [7])?
A: 0.29

Q: What about the “Mean Value of CRs, p-Stat3 TotalPhospho” value (AML blasts; [7]) of the same molecule?
A: 1.97

Q: And the “Mean Value of NRs, p-Stat1 TotalPhospho” value (AML blasts; [7])?
A: 3.12

Q: What about the “Mean Value of NRs, p-Stat3 Fold” value (AML blasts; [7]) of the same molecule?
A: 0.72

Q: What about the “Mean Value of NRs, p-Stat3 TotalPhospho” value (AML blasts; [7]) of the same molecule?
A: 3.06

Q: And the “Mean Value of CRs, p-Stat1 Fold” value (AML blasts; [5])?
A: 0.32

Q: What about the “Mean Value of CRs, p-Stat1 TotalPhospho” value (AML blasts; [5]) of the same molecule?
A: 1.50

Q: And the “Mean Value of CRs, p-Stat3 Fold” value (AML blasts; [5])?
A: −0.01

Q: And the “Mean Value of CRs, p-Stat3 TotalPhospho” value (AML blasts; [5])?
A: 1.61

Q: What about the “Mean Value of NRs, p-Stat1 Fold” value (AML blasts; [5]) of the same molecule?
A: 1.90

Q: And the “Mean Value of NRs, p-Stat1 TotalPhospho” value (AML blasts; [5])?
A: 3.19

Q: And the “Mean Value of NRs, p-Stat3 Fold” value (AML blasts; [5])?
A: 0.76

Q: What about the “Mean Value of NRs, p-Stat3 TotalPhospho” value (AML blasts; [5]) of the same molecule?
A: 2.60

Q: What about the “Mean Value of CRs, p-Stat1” value (AML blasts; [8]) of the same molecule?
A: 1.66

Q: And the “Mean Value of CRs, p-Stat3” value (AML blasts; [8])?
A: 1.88

Q: What about the “Mean Value of NRs, p-Stat1” value (AML blasts; [8]) of the same molecule?
A: 2.63

Q: What about the “Mean Value of NRs, p-Stat3” value (AML blasts; [8]) of the same molecule?
A: 2.43

Q: What about the “modulator responsive cells” value [1] of the same molecule?
A: no IL-27 responsive subpopulation was identified

B3: G-CSF: granulocyte colony-stimulating factor (protein, UniProt P09919 31-207, looked up)
Granulocyte …: TPLGPASSLPQSFLLKCLEQVRKIQGDGAALQEKLVSECATYKLCHPEELVLLGHSLGIPWAPLSSCPSQALQLAGCLSQLHSGLFLYQGLLQALEGISPELGPTLDTLQLDVADFATTIWQQMEELGMAPALQPTQGAMPAFASAFQRRAGGVLVASHLQSFLEVSYRVLRHLAQP
Q: For B3, which “Mean Value of CRs, p-Stat1 Fold” value (AML blasts; [5]) is on record?
A: 0.00

Q: What about the “Mean Value of CRs, p-Stat3 Fold” value (AML blasts; [5]) of the same molecule?
A: 0.06

Q: What about the “Mean Value of CRs, p-Stat5 Fold” value (AML blasts; [5]) of the same molecule?
A: 0.08

Q: And the “Mean Value of CRs, p-Stat5 TotalPhospho” value (AML blasts; [5])?
A: 2.58

Q: And the “Mean Value of NRs, p-Stat1 Fold” value (AML blasts; [5])?
A: 0.36

Q: And the “Mean Value of NRs, p-Stat3 Fold” value (AML blasts; [5])?
A: 0.96

Q: What about the “Mean Value of NRs, p-Stat5 Fold” value (AML blasts; [5]) of the same molecule?
A: 1.07

Q: What about the “Mean Value of NRs, p-Stat5 TotalPhospho” value (AML blasts; [5]) of the same molecule?
A: 3.91

Q: What about the “modulator responsive cells” value [1] of the same molecule?
A: ~1%

Q: And the “percentage” value (AML PBMC)?
A: 3%-56%

Q: And the “Med RFS” value ([2]; SWOG-9031, by arm (NS))?
A: 9 mo; G-CSF: 8

Q: And the “CR Rates” value ([2]; SWOG-9031, by arm, added to Ara-C/DNR induction, p = 0.89)?
A: G-CSF: 41%

Q: And the “Med. OS” value ([2]; SWOG-9031, by arm, p = .71)?
A: G-CSF: 6 mos.
